For 21 molecules, Ho/Con_1a results are on record in US20150344570A1 (published 2015).

In this test the target is T1, FcγRIa (human, UniProt P12314 16-292).
T1 construct: extracellular domain; Soluble extracellular domain expressed in FreeStyle293 cells, used as analyte in Biacore; also called FcgRI; 1a; not shown: His tag attached to the C terminus
Put plainly: SPR (Biacore); Ho Ab vs HoCon Ab GpH7-B3/GpL16-k0. The method in brief: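 On Biacore T100 at 25° C in HBS-EP+, FcγR extracellular domains flowed over test antibodies held by immobilized antigen peptide. Glycine-HCl 10 mM, pH 1.5 stripped captured antibody between cycles; values reported as binding relative to the control antibody.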

T1 sequence (P12314 16-292): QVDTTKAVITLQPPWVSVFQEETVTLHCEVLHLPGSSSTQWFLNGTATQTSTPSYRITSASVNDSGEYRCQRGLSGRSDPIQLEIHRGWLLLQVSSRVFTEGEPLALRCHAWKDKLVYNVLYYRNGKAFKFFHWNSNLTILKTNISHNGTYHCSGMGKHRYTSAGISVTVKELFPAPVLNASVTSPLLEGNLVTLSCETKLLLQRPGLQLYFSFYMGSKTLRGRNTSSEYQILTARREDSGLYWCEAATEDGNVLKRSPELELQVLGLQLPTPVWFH

B1: GpH7-B3 variant S324_15Y/GpL16-k0 (antibody, human IgG1, kappa)
heavy: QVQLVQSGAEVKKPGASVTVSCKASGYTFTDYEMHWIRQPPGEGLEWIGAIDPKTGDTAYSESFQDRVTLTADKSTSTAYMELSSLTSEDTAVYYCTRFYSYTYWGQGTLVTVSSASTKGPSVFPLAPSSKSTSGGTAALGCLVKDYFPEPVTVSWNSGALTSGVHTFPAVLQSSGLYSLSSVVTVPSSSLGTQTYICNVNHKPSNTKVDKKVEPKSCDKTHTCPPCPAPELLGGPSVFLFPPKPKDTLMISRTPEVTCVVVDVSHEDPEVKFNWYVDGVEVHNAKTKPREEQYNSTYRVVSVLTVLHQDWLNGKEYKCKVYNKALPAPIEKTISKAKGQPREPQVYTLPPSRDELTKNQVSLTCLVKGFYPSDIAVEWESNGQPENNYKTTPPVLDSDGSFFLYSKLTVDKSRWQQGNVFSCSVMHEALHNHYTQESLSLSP
light: DIVMTQSPLSLPVTPGEPASISCQASESLVHSNRNTYLHWYLQKPGQSPQLLIYKVSNRFSGVPDRFSGSGSGTDFTLKISRVEAEDVGVYYCSQNTHVPPTFGQGTKVEIERTVAAPSVFIFPPSDEQLKSGTASVVCLLNNFYPREAKVQWKVDNALQSGNSQESVTEQDSKDSTYSLSSTLTLSKADYEKHKVYACEVTHQGLSSPVTKSFNRGEC
notes: also called Ho Ab S324_15Y
For B1, the Ho/Con_1a was 112 relative binding, control = 100.

B2: GpH7-B3 variant S324_16H/GpL16-k0 (antibody, human IgG1, kappa)
heavy: not shown
light: DIVMTQSPLSLPVTPGEPASISCQASESLVHSNRNTYLHWYLQKPGQSPQLLIYKVSNRFSGVPDRFSGSGSGTDFTLKISRVEAEDVGVYYCSQNTHVPPTFGQGTKVEIERTVAAPSVFIFPPSDEQLKSGTASVVCLLNNFYPREAKVQWKVDNALQSGNSQESVTEQDSKDSTYSLSSTLTLSKADYEKHKVYACEVTHQGLSSPVTKSFNRGEC
notes: also called Ho Ab S324_16H
As for B2, the Ho/Con_1a is 111 relative binding, control = 100.

B3: GpH7-B3 variant S337_19Q/GpL16-k0 (antibody, human IgG1, kappa)
heavy: not shown
light: DIVMTQSPLSLPVTPGEPASISCQASESLVHSNRNTYLHWYLQKPGQSPQLLIYKVSNRFSGVPDRFSGSGSGTDFTLKISRVEAEDVGVYYCSQNTHVPPTFGQGTKVEIERTVAAPSVFIFPPSDEQLKSGTASVVCLLNNFYPREAKVQWKVDNALQSGNSQESVTEQDSKDSTYSLSSTLTLSKADYEKHKVYACEVTHQGLSSPVTKSFNRGEC
notes: also called Ho Ab S337_19Q
For the molecule B3, the Ho/Con_1a is 105 relative binding, control = 100.

B4: GpH7-B3 variant S337_20W/GpL16-k0 (antibody, human IgG1, kappa)
heavy: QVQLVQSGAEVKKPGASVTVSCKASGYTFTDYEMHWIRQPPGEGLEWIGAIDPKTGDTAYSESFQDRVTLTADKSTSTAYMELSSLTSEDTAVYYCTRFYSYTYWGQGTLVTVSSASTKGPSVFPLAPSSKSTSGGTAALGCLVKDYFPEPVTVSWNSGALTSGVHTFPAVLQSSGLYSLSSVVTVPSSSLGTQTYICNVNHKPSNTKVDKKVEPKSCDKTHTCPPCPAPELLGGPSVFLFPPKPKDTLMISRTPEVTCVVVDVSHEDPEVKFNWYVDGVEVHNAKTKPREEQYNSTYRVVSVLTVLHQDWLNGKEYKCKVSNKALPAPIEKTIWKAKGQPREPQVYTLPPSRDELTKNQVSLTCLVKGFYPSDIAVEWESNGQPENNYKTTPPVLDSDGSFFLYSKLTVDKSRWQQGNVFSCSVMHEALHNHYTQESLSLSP
light: DIVMTQSPLSLPVTPGEPASISCQASESLVHSNRNTYLHWYLQKPGQSPQLLIYKVSNRFSGVPDRFSGSGSGTDFTLKISRVEAEDVGVYYCSQNTHVPPTFGQGTKVEIERTVAAPSVFIFPPSDEQLKSGTASVVCLLNNFYPREAKVQWKVDNALQSGNSQESVTEQDSKDSTYSLSSTLTLSKADYEKHKVYACEVTHQGLSSPVTKSFNRGEC
notes: also called Ho Ab S337_20W
Turning to B4, the Ho/Con_1a was 104 relative binding, control = 100.

B5: GpH7-B3 variant S337_15Y/GpL16-k0 (antibody, human IgG1, kappa)
heavy: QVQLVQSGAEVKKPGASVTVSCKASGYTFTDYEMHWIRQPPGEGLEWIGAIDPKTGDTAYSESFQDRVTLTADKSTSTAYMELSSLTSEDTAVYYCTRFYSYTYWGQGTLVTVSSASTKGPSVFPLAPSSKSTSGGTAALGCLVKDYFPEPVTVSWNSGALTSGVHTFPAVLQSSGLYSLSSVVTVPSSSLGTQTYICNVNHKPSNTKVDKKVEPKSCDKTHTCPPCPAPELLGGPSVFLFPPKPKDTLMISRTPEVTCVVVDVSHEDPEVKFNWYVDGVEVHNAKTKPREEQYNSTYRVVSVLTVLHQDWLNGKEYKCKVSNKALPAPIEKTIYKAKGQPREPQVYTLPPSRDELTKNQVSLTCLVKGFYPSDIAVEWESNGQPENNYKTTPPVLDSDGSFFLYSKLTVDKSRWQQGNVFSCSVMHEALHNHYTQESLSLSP
light: DIVMTQSPLSLPVTPGEPASISCQASESLVHSNRNTYLHWYLQKPGQSPQLLIYKVSNRFSGVPDRFSGSGSGTDFTLKISRVEAEDVGVYYCSQNTHVPPTFGQGTKVEIERTVAAPSVFIFPPSDEQLKSGTASVVCLLNNFYPREAKVQWKVDNALQSGNSQESVTEQDSKDSTYSLSSTLTLSKADYEKHKVYACEVTHQGLSSPVTKSFNRGEC
notes: also called Ho Ab S337_15Y
With B5, the Ho/Con_1a is 104 relative binding, control = 100.

B6: GpH7-B3 variant T335_04F/GpL16-k0 (antibody, human IgG1, kappa)
heavy: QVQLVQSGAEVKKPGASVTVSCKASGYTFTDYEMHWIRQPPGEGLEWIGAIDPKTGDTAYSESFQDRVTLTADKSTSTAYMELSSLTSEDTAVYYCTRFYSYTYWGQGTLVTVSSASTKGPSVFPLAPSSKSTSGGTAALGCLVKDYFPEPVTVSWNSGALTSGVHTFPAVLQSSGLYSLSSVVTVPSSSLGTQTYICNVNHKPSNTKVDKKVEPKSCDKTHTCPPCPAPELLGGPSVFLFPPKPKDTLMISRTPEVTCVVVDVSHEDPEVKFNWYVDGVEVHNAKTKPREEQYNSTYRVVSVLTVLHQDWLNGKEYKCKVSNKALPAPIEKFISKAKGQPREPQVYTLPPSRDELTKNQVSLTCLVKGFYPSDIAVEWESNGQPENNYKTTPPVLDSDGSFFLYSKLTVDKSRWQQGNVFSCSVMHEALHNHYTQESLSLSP
light: DIVMTQSPLSLPVTPGEPASISCQASESLVHSNRNTYLHWYLQKPGQSPQLLIYKVSNRFSGVPDRFSGSGSGTDFTLKISRVEAEDVGVYYCSQNTHVPPTFGQGTKVEIERTVAAPSVFIFPPSDEQLKSGTASVVCLLNNFYPREAKVQWKVDNALQSGNSQESVTEQDSKDSTYSLSSTLTLSKADYEKHKVYACEVTHQGLSSPVTKSFNRGEC
notes: also called Ho Ab T335_04F
In the case of B6, the Ho/Con_1a was 105 relative binding, control = 100.

B7: GpH7-B3 variant S337_12R/GpL16-k0 (antibody, human IgG1, kappa)
heavy: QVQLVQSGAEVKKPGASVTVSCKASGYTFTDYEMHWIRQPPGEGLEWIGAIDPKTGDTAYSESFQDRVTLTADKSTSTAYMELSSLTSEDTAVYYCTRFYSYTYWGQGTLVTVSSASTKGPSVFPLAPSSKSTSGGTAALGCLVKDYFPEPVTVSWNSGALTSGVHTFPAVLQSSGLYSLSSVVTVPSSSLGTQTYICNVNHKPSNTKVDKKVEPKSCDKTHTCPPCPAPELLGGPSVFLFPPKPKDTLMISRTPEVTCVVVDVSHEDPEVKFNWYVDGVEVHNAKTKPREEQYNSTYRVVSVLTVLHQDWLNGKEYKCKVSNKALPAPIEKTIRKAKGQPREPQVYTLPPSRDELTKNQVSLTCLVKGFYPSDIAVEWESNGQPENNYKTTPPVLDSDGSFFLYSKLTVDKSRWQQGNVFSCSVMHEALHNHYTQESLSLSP
light: DIVMTQSPLSLPVTPGEPASISCQASESLVHSNRNTYLHWYLQKPGQSPQLLIYKVSNRFSGVPDRFSGSGSGTDFTLKISRVEAEDVGVYYCSQNTHVPPTFGQGTKVEIERTVAAPSVFIFPPSDEQLKSGTASVVCLLNNFYPREAKVQWKVDNALQSGNSQESVTEQDSKDSTYSLSSTLTLSKADYEKHKVYACEVTHQGLSSPVTKSFNRGEC
notes: also called Ho Ab S337_12R
Turning to B7, the Ho/Con_1a is 105 relative binding, control = 100.

B8: GpH7-B3 variant S324_20W/GpL16-k0 (antibody, human IgG1, kappa)
heavy: not shown
light: DIVMTQSPLSLPVTPGEPASISCQASESLVHSNRNTYLHWYLQKPGQSPQLLIYKVSNRFSGVPDRFSGSGSGTDFTLKISRVEAEDVGVYYCSQNTHVPPTFGQGTKVEIERTVAAPSVFIFPPSDEQLKSGTASVVCLLNNFYPREAKVQWKVDNALQSGNSQESVTEQDSKDSTYSLSSTLTLSKADYEKHKVYACEVTHQGLSSPVTKSFNRGEC
notes: also called Ho Ab S324_20W
Turning to B8, the Ho/Con_1a is 112 relative binding, control = 100.

B9: GpH7-B3 variant S337_07I/GpL16-k0 (antibody, human IgG1, kappa)
heavy: not shown
light: DIVMTQSPLSLPVTPGEPASISCQASESLVHSNRNTYLHWYLQKPGQSPQLLIYKVSNRFSGVPDRFSGSGSGTDFTLKISRVEAEDVGVYYCSQNTHVPPTFGQGTKVEIERTVAAPSVFIFPPSDEQLKSGTASVVCLLNNFYPREAKVQWKVDNALQSGNSQESVTEQDSKDSTYSLSSTLTLSKADYEKHKVYACEVTHQGLSSPVTKSFNRGEC
notes: also called Ho Ab S337_07I
In the case of B9, the Ho/Con_1a was 105 relative binding, control = 100.

B10: GpH7-B3 variant S324_19Q/GpL16-k0 (antibody, human IgG1, kappa)
heavy: not shown
light: DIVMTQSPLSLPVTPGEPASISCQASESLVHSNRNTYLHWYLQKPGQSPQLLIYKVSNRFSGVPDRFSGSGSGTDFTLKISRVEAEDVGVYYCSQNTHVPPTFGQGTKVEIERTVAAPSVFIFPPSDEQLKSGTASVVCLLNNFYPREAKVQWKVDNALQSGNSQESVTEQDSKDSTYSLSSTLTLSKADYEKHKVYACEVTHQGLSSPVTKSFNRGEC
notes: also called Ho Ab S324_19Q
For B10, the Ho/Con_1a is 111 relative binding, control = 100.

B11: GpH7-B3 variant T335_05P/GpL16-k0 (antibody, human IgG1, kappa)
heavy: not shown
light: DIVMTQSPLSLPVTPGEPASISCQASESLVHSNRNTYLHWYLQKPGQSPQLLIYKVSNRFSGVPDRFSGSGSGTDFTLKISRVEAEDVGVYYCSQNTHVPPTFGQGTKVEIERTVAAPSVFIFPPSDEQLKSGTASVVCLLNNFYPREAKVQWKVDNALQSGNSQESVTEQDSKDSTYSLSSTLTLSKADYEKHKVYACEVTHQGLSSPVTKSFNRGEC
notes: also called Ho Ab T335_05P
On to B11, for which the Ho/Con_1a was 106 relative binding, control = 100.

B12: GpH7-B3 variant S337_02A/GpL16-k0 (antibody, human IgG1, kappa)
heavy: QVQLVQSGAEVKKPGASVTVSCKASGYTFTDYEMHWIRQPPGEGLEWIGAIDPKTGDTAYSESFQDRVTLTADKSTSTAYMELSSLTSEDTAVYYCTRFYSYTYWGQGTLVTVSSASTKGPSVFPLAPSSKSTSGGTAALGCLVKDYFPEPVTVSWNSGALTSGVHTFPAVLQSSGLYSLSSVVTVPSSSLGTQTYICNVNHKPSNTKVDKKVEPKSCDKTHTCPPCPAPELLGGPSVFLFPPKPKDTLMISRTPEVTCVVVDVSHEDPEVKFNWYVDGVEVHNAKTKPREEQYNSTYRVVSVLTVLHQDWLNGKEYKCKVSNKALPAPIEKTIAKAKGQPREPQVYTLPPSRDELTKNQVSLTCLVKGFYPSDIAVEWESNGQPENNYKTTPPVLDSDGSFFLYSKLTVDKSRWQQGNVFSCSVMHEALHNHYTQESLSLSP
light: DIVMTQSPLSLPVTPGEPASISCQASESLVHSNRNTYLHWYLQKPGQSPQLLIYKVSNRFSGVPDRFSGSGSGTDFTLKISRVEAEDVGVYYCSQNTHVPPTFGQGTKVEIERTVAAPSVFIFPPSDEQLKSGTASVVCLLNNFYPREAKVQWKVDNALQSGNSQESVTEQDSKDSTYSLSSTLTLSKADYEKHKVYACEVTHQGLSSPVTKSFNRGEC
notes: also called Ho Ab S337_02A
For the molecule B12, the Ho/Con_1a is 103 relative binding, control = 100.

B13: GpH7-B3 variant S324_18N/GpL16-k0 (antibody, human IgG1, kappa)
heavy: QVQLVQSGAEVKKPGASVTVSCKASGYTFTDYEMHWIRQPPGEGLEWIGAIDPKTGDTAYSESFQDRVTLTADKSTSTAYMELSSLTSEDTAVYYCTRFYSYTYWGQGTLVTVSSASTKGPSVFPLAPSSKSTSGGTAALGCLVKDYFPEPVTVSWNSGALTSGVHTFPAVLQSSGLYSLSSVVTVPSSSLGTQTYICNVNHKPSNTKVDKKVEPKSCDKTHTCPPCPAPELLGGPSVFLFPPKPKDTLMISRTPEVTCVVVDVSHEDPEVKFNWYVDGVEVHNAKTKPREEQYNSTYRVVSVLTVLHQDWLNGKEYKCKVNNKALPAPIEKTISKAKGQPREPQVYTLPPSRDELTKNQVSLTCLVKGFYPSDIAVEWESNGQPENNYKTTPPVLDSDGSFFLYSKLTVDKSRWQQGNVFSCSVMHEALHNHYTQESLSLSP
light: DIVMTQSPLSLPVTPGEPASISCQASESLVHSNRNTYLHWYLQKPGQSPQLLIYKVSNRFSGVPDRFSGSGSGTDFTLKISRVEAEDVGVYYCSQNTHVPPTFGQGTKVEIERTVAAPSVFIFPPSDEQLKSGTASVVCLLNNFYPREAKVQWKVDNALQSGNSQESVTEQDSKDSTYSLSSTLTLSKADYEKHKVYACEVTHQGLSSPVTKSFNRGEC
notes: also called Ho Ab S324_18N
For the molecule B13, the Ho/Con_1a was 111 relative binding, control = 100.

B14: GpH7-B3 variant S337_01G/GpL16-k0 (antibody, human IgG1, kappa)
heavy: not shown
light: DIVMTQSPLSLPVTPGEPASISCQASESLVHSNRNTYLHWYLQKPGQSPQLLIYKVSNRFSGVPDRFSGSGSGTDFTLKISRVEAEDVGVYYCSQNTHVPPTFGQGTKVEIERTVAAPSVFIFPPSDEQLKSGTASVVCLLNNFYPREAKVQWKVDNALQSGNSQESVTEQDSKDSTYSLSSTLTLSKADYEKHKVYACEVTHQGLSSPVTKSFNRGEC
notes: also called Ho Ab S337_01G
Regarding B14, the Ho/Con_1a was 102 relative binding, control = 100.

B15: GpH7-B3 variant S337_09D/GpL16-k0 (antibody, human IgG1, kappa)
heavy: not shown
light: DIVMTQSPLSLPVTPGEPASISCQASESLVHSNRNTYLHWYLQKPGQSPQLLIYKVSNRFSGVPDRFSGSGSGTDFTLKISRVEAEDVGVYYCSQNTHVPPTFGQGTKVEIERTVAAPSVFIFPPSDEQLKSGTASVVCLLNNFYPREAKVQWKVDNALQSGNSQESVTEQDSKDSTYSLSSTLTLSKADYEKHKVYACEVTHQGLSSPVTKSFNRGEC
notes: also called Ho Ab S337_09D
Turning to B15, the Ho/Con_1a was 106 relative binding, control = 100.

B16: GpH7-B3 variant S337_10E/GpL16-k0 (antibody, human IgG1, kappa)
heavy: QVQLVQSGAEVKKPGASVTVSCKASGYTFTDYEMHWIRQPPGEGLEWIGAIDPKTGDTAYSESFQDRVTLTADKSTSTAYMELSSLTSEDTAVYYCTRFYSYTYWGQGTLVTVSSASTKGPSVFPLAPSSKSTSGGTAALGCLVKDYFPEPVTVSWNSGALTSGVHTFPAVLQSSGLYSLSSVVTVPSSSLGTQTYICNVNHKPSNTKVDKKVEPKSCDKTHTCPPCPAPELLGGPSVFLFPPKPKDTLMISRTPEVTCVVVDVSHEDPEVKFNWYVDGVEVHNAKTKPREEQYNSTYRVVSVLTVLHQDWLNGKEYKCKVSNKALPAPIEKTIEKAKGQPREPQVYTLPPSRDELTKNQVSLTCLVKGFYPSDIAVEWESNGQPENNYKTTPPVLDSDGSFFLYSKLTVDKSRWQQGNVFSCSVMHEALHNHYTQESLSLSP
light: DIVMTQSPLSLPVTPGEPASISCQASESLVHSNRNTYLHWYLQKPGQSPQLLIYKVSNRFSGVPDRFSGSGSGTDFTLKISRVEAEDVGVYYCSQNTHVPPTFGQGTKVEIERTVAAPSVFIFPPSDEQLKSGTASVVCLLNNFYPREAKVQWKVDNALQSGNSQESVTEQDSKDSTYSLSSTLTLSKADYEKHKVYACEVTHQGLSSPVTKSFNRGEC
notes: also called Ho Ab S337_10E
In the case of B16, the Ho/Con_1a was 104 relative binding, control = 100.

B17: GpH7-B3 variant S337_04F/GpL16-k0 (antibody, human IgG1, kappa)
heavy: not shown
light: DIVMTQSPLSLPVTPGEPASISCQASESLVHSNRNTYLHWYLQKPGQSPQLLIYKVSNRFSGVPDRFSGSGSGTDFTLKISRVEAEDVGVYYCSQNTHVPPTFGQGTKVEIERTVAAPSVFIFPPSDEQLKSGTASVVCLLNNFYPREAKVQWKVDNALQSGNSQESVTEQDSKDSTYSLSSTLTLSKADYEKHKVYACEVTHQGLSSPVTKSFNRGEC
notes: also called Ho Ab S337_04F
As to B17, the Ho/Con_1a was 105 relative binding, control = 100.

B18: GpH7-B3 variant S337_08L/GpL16-k0 (antibody, human IgG1, kappa)
heavy: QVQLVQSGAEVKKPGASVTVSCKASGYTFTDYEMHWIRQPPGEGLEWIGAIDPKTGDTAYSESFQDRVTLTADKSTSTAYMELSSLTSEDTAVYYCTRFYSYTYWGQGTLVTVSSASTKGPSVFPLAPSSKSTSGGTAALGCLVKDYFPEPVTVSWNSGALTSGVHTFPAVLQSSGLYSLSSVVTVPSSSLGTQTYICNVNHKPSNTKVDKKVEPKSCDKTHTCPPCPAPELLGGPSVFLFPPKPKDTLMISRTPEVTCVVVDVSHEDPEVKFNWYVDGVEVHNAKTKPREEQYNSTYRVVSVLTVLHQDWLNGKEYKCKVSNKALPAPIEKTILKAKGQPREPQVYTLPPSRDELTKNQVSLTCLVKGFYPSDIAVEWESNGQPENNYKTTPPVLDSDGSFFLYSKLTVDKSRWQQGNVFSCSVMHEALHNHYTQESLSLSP
light: DIVMTQSPLSLPVTPGEPASISCQASESLVHSNRNTYLHWYLQKPGQSPQLLIYKVSNRFSGVPDRFSGSGSGTDFTLKISRVEAEDVGVYYCSQNTHVPPTFGQGTKVEIERTVAAPSVFIFPPSDEQLKSGTASVVCLLNNFYPREAKVQWKVDNALQSGNSQESVTEQDSKDSTYSLSSTLTLSKADYEKHKVYACEVTHQGLSSPVTKSFNRGEC
notes: also called Ho Ab S337_08L
For the molecule B18, the Ho/Con_1a is 105 relative binding, control = 100.

B19: GpH7-B3 variant T335_06M/GpL16-k0 (antibody, human IgG1, kappa)
heavy: not shown
light: DIVMTQSPLSLPVTPGEPASISCQASESLVHSNRNTYLHWYLQKPGQSPQLLIYKVSNRFSGVPDRFSGSGSGTDFTLKISRVEAEDVGVYYCSQNTHVPPTFGQGTKVEIERTVAAPSVFIFPPSDEQLKSGTASVVCLLNNFYPREAKVQWKVDNALQSGNSQESVTEQDSKDSTYSLSSTLTLSKADYEKHKVYACEVTHQGLSSPVTKSFNRGEC
notes: also called Ho Ab T335_06M
Regarding B19, the Ho/Con_1a was 106 relative binding, control = 100.

B20: GpH7-B3 variant S337_06M/GpL16-k0 (antibody, human IgG1, kappa)
heavy: not shown
light: DIVMTQSPLSLPVTPGEPASISCQASESLVHSNRNTYLHWYLQKPGQSPQLLIYKVSNRFSGVPDRFSGSGSGTDFTLKISRVEAEDVGVYYCSQNTHVPPTFGQGTKVEIERTVAAPSVFIFPPSDEQLKSGTASVVCLLNNFYPREAKVQWKVDNALQSGNSQESVTEQDSKDSTYSLSSTLTLSKADYEKHKVYACEVTHQGLSSPVTKSFNRGEC
notes: also called Ho Ab S337_06M
For the molecule B20, the Ho/Con_1a is 102 relative binding, control = 100.

B21: GpH7-B3 variant S337_03V/GpL16-k0 (antibody, human IgG1, kappa)
heavy: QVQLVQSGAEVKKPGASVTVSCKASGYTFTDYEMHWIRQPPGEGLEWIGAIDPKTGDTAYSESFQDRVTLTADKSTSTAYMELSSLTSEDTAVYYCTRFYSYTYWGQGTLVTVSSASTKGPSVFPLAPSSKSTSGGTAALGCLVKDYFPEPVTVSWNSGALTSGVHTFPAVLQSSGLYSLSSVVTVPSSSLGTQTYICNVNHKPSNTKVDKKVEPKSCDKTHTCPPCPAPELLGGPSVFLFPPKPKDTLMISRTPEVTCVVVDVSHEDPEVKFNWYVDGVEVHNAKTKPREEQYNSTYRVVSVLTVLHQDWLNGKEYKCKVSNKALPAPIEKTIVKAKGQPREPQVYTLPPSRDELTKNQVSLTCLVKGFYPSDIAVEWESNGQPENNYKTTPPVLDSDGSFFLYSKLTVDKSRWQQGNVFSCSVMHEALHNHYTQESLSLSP
light: DIVMTQSPLSLPVTPGEPASISCQASESLVHSNRNTYLHWYLQKPGQSPQLLIYKVSNRFSGVPDRFSGSGSGTDFTLKISRVEAEDVGVYYCSQNTHVPPTFGQGTKVEIERTVAAPSVFIFPPSDEQLKSGTASVVCLLNNFYPREAKVQWKVDNALQSGNSQESVTEQDSKDSTYSLSSTLTLSKADYEKHKVYACEVTHQGLSSPVTKSFNRGEC
notes: also called Ho Ab S337_03V
B21: the Ho/Con_1a is 105 relative binding, control = 100.
